Measurements as given in the supplement of paper PMC9732359.
± gives the uncertainty stated by the source.

Assay: protein stability index of a GFP-peptide fusion (yeast GPS) (PSI 1-4); higher = more stable; sorted into four equal gates, so the index is relative within each strain
Method in brief: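 Peptides tiling yeast proteins in 17-residue segments were fused downstream of GFP, with Cherry expressed from the same plasmid. As a pooled library in yeast, mid-log cultures grown in leucine-free medium were sorted into four equal gates by GFP/Cherry fluorescence ratio. Gate plasmids were PCR-amplified and Illumina-sequenced, and barcodes linked reads to strains. Each peptide received a protein stability index equal to the sum of each gate's read frequency times its gate number.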

Sequence | protein stability index (doa10∆) | protein stability index (pdr5∆) | protein stability index (san1∆) | protein stability index (ubr1∆)
NAVLGLGDMAVCFNNLV [YCS4] | 2.71 ± 0.097 | 3.32 ± 0.11 | 2.61 ± 0.098 | 2.68 ± 0.093
NDEGVWDLVDERTKQRT [PRP8] | 3.19 ± 0.12 | 3.37 ± 0.13 | 3.35 ± 0.13 | 3.26 ± 0.12
NDIPQTESPLKTVDSSI [SSN2] | 2.99 ± 0.071 | 3.01 ± 0.055 | 2.81 ± 0.061 | 3.03 ± 0.032
NDLIVNYEDLATTQAAS [BRN1] | 2.98 ± 0.07 | 3.09 ± 0.087 | 3.34 ± 0.046 | 3.25 ± 0.061
NDNNSPHTPVTRKGYIP [YLR018C/POM34] | 3.1 ± 0.081 | 2.88 ± 0.073 | 2.85 ± 0.078 | 3.01 ± 0.055
NDQDMFTIVSLVQLKKF [YML103C/NUP188] | 2.18 ± 0.12 | 2.84 ± 0.11 | 1.93 ± 0.17 | 2.04 ± 0.14
NDQVEKDAEDETSSDGS [RPN1] | 2.63 ± 0.15 | 2.42 ± 0.096 | 2.04 ± 0.17 | 2.59 ± 0.13
NDSNPSFSFSIPSKNTP [YLR335W/NUP2] | 2.42 ± 0.048 | 2.13 ± 0.04 | 2.58 ± 0.046 | 2.64 ± 0.047
NDTLPDEISPELLSKYK [SNU114] | 2.9 ± 0.067 | 2.8 ± 0.072 | 3.03 ± 0.064 | 2.86 ± 0.075
NDYLEKHSVTEYIFEAH [CDC53] | – | 2.79 ± 0.12 | 3.12 ± 0.094 | 3.17 ± 0.1
NEAALVVNITHHELVPK [RPB5] | 2.93 ± 0.09 | 2.71 ± 0.06 | 3.14 ± 0.062 | 2.88 ± 0.081
NECQRLQNIVMDCTKEE [YIL149C/MLP2] | 2.61 ± 0.093 | 3.47 ± 0.11 | 3.66 ± 0.2 | 3.4 ± 0.12
NEDDLTVKLTEIVWTSS [RPO31] | 2.89 ± 0.093 | 3.04 ± 0.09 | 3.01 ± 0.074 | 3.14 ± 0.059
NEEAEARRLKNRAARDR [RPL19A] | 3.16 ± 0.13 | 3.32 ± 0.087 | 2.89 ± 0.19 | 3.33 ± 0.062
NEHSTSYTFRSEKGLLS [FAS1] | 2.6 ± 0.047 | 2.36 ± 0.054 | 2.7 ± 0.042 | 2.46 ± 0.033
NEKKTETNAKPFSFSSA [YLR335W/NUP2] | 3.32 ± 0.11 | 3.28 ± 0.088 | 3.33 ± 0.041 | 3.36 ± 0.079
NEKLADLGLEKEFQSVD [RPC53] | – | – | 2 ± 0.17 | –
NEKRYATASAIAATAVA [RPL4A] | 2.29 ± 0.087 | 1.53 ± 0.056 | 1.74 ± 0.14 | 1.5 ± 0.066
NEKVAVMRNTYNTRKNA [GAL11] | 2.76 ± 0.14 | 3.14 ± 0.06 | 2.18 ± 0.072 | 2.37 ± 0.09
NELLEMVGLASGNDSMA [BRR2] | 2.59 ± 0.094 | 2.1 ± 0.072 | 3.11 ± 0.077 | 2.32 ± 0.057

Sequence | protein stability index (doa10∆) | protein stability index (pdr5∆) | protein stability index (san1∆) | protein stability index (ubr1∆)
NELLKCKDDVQLQKILE [MTW1] | 2.97 ± 0.057 | 3.04 ± 0.051 | 3.05 ± 0.035 | 3.04 ± 0.037
NEPAARLGSEADAKAFL [FAS2] | 3.45 ± 0.065 | 3.42 ± 0.058 | 3.35 ± 0.042 | 3.31 ± 0.077
NEPTQKDEEETEYFENK [DSN1] | 3.58 ± 0.27 | 3.54 ± 0.23 | 2.71 ± 0.29 | 3.12 ± 0.23
NERLEINQEKPVKLDEN [SIR4] | 3.19 ± 0.17 | 3.05 ± 0.12 | 3.44 ± 0.086 | 3.3 ± 0.12
NESLIPLINLALIDTEF [YML103C/NUP188] | 2.51 ± 0.11 | 1.9 ± 0.088 | 1.32 ± 0.15 | 2.1 ± 0.12
NESSLALEFVSLLLSSV [SRB4] | 1.18 ± 0.045 | 1.33 ± 0.048 | 1.53 ± 0.09 | 1.6 ± 0.05
NESSTFLKLVLSESPVD [SIN4] | 2.1 ± 0.041 | 1.95 ± 0.052 | 2.05 ± 0.073 | 2.02 ± 0.046
NETKKRNFLETVELQVG [RPL1A] | 2.96 ± 0.24 | 2.72 ± 0.23 | – | –
NETNDKKRNPSKQNGSK [PRP28] | 3.21 ± 0.096 | 3.15 ± 0.066 | 3.02 ± 0.051 | 3.23 ± 0.039
NFEKPKNSSQLLNEWSH [RPN5] | 2.83 ± 0.087 | 3.11 ± 0.078 | 2.88 ± 0.063 | 3.12 ± 0.087
NFESISARSSVHESLVT [SRB8] | 2.49 ± 0.052 | 2.1 ± 0.039 | 2.17 ± 0.062 | 2.26 ± 0.027
NFIIWINSIDTTESSDL [GRR1] | 2.46 ± 0.044 | 2.38 ± 0.047 | 2.61 ± 0.055 | 2.88 ± 0.037
NFKKFNERRKDLAERAS [SMC3] | 1.47 ± 0.061 | 1.97 ± 0.073 | 1.57 ± 0.11 | 2.05 ± 0.097
NFKMLVLLATWNLEKWR [IRR1] | 1.32 ± 0.053 | 1.3 ± 0.071 | 1.5 ± 0.12 | 1.56 ± 0.038
NFLDNCLFENDLQRLKP [ITC1] | 2.61 ± 0.051 | 3.07 ± 0.063 | 2.94 ± 0.048 | 3.06 ± 0.034
NFNKFFKIWHGEINKIC [PCI8] | 1.24 ± 0.049 | 1.13 ± 0.046 | 1.15 ± 0.079 | 1.14 ± 0.059
NFNPDNGFAPISEVMED [FAS1] | 3.3 ± 0.085 | 3.06 ± 0.042 | 3.2 ± 0.044 | 3.17 ± 0.033
NGAGGLMYATDWQMMTS [CSL4] | 3.23 ± 0.15 | 2.93 ± 0.12 | – | 2.99 ± 0.09
NGCIFTLNPKTGHLFLK [PRP8] | 3.24 ± 0.064 | 2.92 ± 0.082 | 2.98 ± 0.083 | 2.97 ± 0.083
